# Data published in US20180057604A1 (Genentech, published 2018).
# Where a chain is given by its changes, count along the chain named. Names may count otherwise.
# T1: cyno TfR extracellular domain (analogous construct to human TfR ecd) (cynomolgus monkey, UniProt Q5RDH6 87-760 (Pongo abelii entry))
# T1 construct: also called cynoTfR ecd
# T1 chain: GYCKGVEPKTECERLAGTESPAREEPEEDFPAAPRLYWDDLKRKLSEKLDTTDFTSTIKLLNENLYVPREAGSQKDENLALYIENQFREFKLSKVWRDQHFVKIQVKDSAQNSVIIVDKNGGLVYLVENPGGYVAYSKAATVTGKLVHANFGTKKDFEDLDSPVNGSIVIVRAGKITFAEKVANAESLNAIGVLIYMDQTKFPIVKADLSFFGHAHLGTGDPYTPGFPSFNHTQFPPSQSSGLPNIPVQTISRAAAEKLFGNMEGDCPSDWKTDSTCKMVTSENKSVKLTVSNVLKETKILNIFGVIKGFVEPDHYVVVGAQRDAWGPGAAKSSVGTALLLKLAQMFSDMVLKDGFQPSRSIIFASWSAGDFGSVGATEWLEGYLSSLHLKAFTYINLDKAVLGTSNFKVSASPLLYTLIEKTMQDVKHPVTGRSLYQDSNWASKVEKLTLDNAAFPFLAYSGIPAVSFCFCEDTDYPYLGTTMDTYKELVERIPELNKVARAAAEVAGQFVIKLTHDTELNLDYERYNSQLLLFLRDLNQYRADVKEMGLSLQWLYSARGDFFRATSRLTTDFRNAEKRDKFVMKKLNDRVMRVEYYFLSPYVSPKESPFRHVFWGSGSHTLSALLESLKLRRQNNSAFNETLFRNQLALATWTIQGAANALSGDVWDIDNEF
# B1: 5990 (antibody, V domains shown)
# VH: QLQLQESGPGLVKPSETLSLTCTVSGGSISWSSYYWSWIRQPPGKGLEWIGSIYRSGRTYYNPSLKSRVTISVDTSKNQFSLKLSSVTAADTAVYYCARVGHGINYFDLWGRGTLVTVSS
# VL: EIVLTQSPATLSLSPGERATLSCRASRSVNSYLAWYQQKPGQAPRLLIYDASKRATGIPARFSGSGSGTDFTLTISSLEPEDFAVYYCQQVYTWPPRTFGGGTKVEIK
# notes: anti-BACE1 IgG
# B2: 6291 (antibody, V domains shown)
# VH: B1 VH with W31S, S37G, S52M, R55Y, R58S, Y60W, I104V, N105S
# VL: B1 VL with R27Q, N30S, D50G
# notes: anti-BACE1 IgG
# B3: 6298 (antibody, V domains shown)
# VH: B1 VH with S52N, R55Y, R58S, V100L, I104Y
# VL: B1 VL with R27Q, N30S, Y36F, K53N, T93V
# notes: anti-BACE1 IgG
# B4: 6294 (antibody, V domains shown)
# VH: B1 VH with W31S, Y34H, S37G, S52M, R55Y, R58S, Y60W, I104V, N105S
# VL: B1 VL with R27Q, N30S
# notes: anti-BACE1 IgG
# B5: 6280 (antibody, V domains shown)
# VH: B1 VH with I29T, W31S, S37G, R58S, L65F, N105S
# VL: B1 VL with R27Q, N30S, K53N, V91S, Y92L
# notes: anti-BACE1 IgG
# B6: 6285 (antibody, V domains shown)
# VH: B1 VH with I29T, W31S, S37G, R58S, N105S
# VL: B1 VL with R27Q, N30S, K53S, V91S, Y92L
# notes: anti-BACE1 IgG
# B7: 5987 (antibody, V domains shown)
# VH: QVQLVQSGAEVKKPGSSVKVSCKASGGTLSGYAISWVRQAPGQGLEWMGNIIPGFGTANYAQKSQGRVTITADESTSTAYMELSSLRSEDTAVYYCARSGGTRYGMLDVWGQGTMVTVSS
# VL: EIVMTQSPATLSVSPGERATLSCRASQSVSSNLAWYQQKPGQAPRLLIYGASTRATGIPARFSGSGSGTEFTLTISSLQSEDFAVYYCQQLFLWPPRTFGGGTKVEIK
# notes: anti-BACE1 IgG
# B8: 6271 (antibody, V domains shown)
# VH: B7 VH with L29I, A33G, S64F, R103K
# VL: B7 VL with F92I
# notes: anti-BACE1 IgG
# B9: 6276 (antibody, V domains shown)
# VH: B7 VH with L29F, S30R, F55L, G56S, S64F, R103K
# VL: B7 VL with F92I
# notes: anti-BACE1 IgG
# B10: 6273 (antibody, V domains shown)
# VH: B7 VH with L29F, A33G, S64F, R103K
# VL: B7 VL with L33I, F92L
# notes: anti-BACE1 IgG
# B11: 6272 (antibody, V domains shown)
# VH: B7 VH with L29F, A33G, S64F, R103K
# VL: B7 VL
# notes: anti-BACE1 IgG
# B12: 5988 (antibody, V domains shown)
# VH: B7 VH
# VL: B7 VL with E1G, S30G, F92Y, L93T
# notes: anti-BACE1 IgG
# B13: hu15G11.v5 IgG Ala variant Y30A (HVR-L1) (antibody, V domains shown)
# VH: EVQLVQSGAEVKKPGASVKVSCKASGYTFTSYWMHWVRQAPGQRLEWIGEINPTNGRTNYIEKFKSRATLTVDKSASTAYMELSSLRSEDTAVYYCARGTRAYHYWGQGTMVTVSS
# VL: DIQMTQSPSSLSASVGDRVTITCRASDNLASNLAWYQQKPGKSPKLLVYDATNLADGVPSRFSGSGSGTDYTLTISSLQPEDFATYYCQHFWGTPLTFGQGTKVEIK
# notes: IgG in cell culture supernatant
# B14: hu15G11.v5 IgG Ala variant Y32A (HVR-H1) (antibody, name in Kabat numbering, V domains shown)
# VH: B13 VH with Y32A
# VL: B13 VL with A30Y
# notes: as for B13
# B15: hu15G11.v5 IgG Ala variant Y59A (HVR-H2) (antibody, name in Kabat numbering, V domains shown)
# VH: B13 VH with Y60A
# VL: B13 VL with A30Y
# notes: IgG in cell culture supernatant; Kabat numbers after 52a lie one below the linear count
# B16: hu15G11.v5 IgG Ala variant T53A (HVR-H2) (antibody, V domains shown)
# VH: B13 VH with T54A
# VL: B13 VL with A30Y
# notes: IgG in cell culture supernatant; also called 15G11.T53A; 15G11.53A
# B17: Hu15G11.v1.Fab (Fab, V domains shown)
# VH: B13 VH with I48M, A68V, L70I, V72R, K74T
# VL: B13 VL with A30Y, S43A, V48L
# notes: Fab
# B18: Hu7A4.v5.Fab (Fab, V domains shown)
# VH: EVQLVQSGAEVKKPGASVKVSCKASGYTFTDYAMHWVRQAPGQGLEWMGGISTYFGRTNYNQKFKGRVTMTRDTSISTAYMELSRLRSDDTAVYYCARGLSGNYVMDYWGQGTTVTVSS
# VL: DIVMTQSPDSLAVSLGERATINCRASESVDSYGNSFMHWYQQKPGQPPKLLIYRASNLESGIPDRFSGSGSGTDFTLTISSLQAEDVAVYYCQQSNEGPPTFGQGTKLEIK
# notes: Fab
# B19: Hu7A4.v8.Fab (Fab, V domains shown)
# VH: B18 VH with A24G, R72V
# VL: B18 VL
# notes: Fab
# B20: 6300 (antibody, V domains shown)
# VH: B7 VH
# VL: B7 VL with M4L, S30G, L91S
# notes: anti-BACE1 IgG
# Biological target: T2, BACE1 in primary mouse cortical neurons (mouse, UniProt P56818 46-501)
# T2 sequence (P56818 46-501): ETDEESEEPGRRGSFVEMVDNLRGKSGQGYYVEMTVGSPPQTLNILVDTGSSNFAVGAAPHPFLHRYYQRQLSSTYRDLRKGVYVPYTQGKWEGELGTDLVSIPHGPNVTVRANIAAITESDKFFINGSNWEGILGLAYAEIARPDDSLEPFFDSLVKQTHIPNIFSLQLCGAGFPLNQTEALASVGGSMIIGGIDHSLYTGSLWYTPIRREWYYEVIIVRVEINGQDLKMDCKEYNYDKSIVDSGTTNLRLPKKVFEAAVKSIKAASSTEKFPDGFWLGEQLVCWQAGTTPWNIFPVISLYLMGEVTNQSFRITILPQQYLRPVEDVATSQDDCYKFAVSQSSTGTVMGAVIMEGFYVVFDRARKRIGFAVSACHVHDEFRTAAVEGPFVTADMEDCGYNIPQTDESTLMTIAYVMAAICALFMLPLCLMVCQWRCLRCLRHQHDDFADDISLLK
# Assay: cell-based or functional assay
"IC50, Abeta x-40 in mouse cortical neurons",maximal % inhibition of Abeta x-40,Binder
0.53 nM,61%,B1
1.41 nM,68%,B2
1.95 nM,67%,B3
3.53 nM,59%,B4
8.29 nM,65%,B5
15.4 nM,57%,B6
7.2 nM,69%,B7
1.77 nM,83%,B8
7.4 nM,81%,B9
5.71 nM,82%,B10
43.6 nM,82%,B11
3.55 nM,75%,B12

# Biological target: T1, cyno TfR extracellular domain …
# Assay: ELISA, TfR-coated plate, IgG in culture supernatant;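 further: human or cynomolgus TfR coated at 2 µg/mL, supernatant IgG titrated in 1:5 steps for 1 h, bound antibody read with HRP anti-human Fcγ and TMB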
# Method: (§1) The Hu/Cy binding ELISA was performed in maxisorp plates coated with 2 μg/ml of purified human or cyno TfR in PBS at 4° C. overnight. Plates were washed with PBS/0.05% Tween 20 and blocked using Superblock blocking buffer in PBS (Thermo Scientific, Hudson, N.H.). Cell culture supernatants containing the expressed Ala scan variant IgGs were serially diluted 1:5 and added to the wells for 1 h. Plates were washed with PBS/0.05% Tween 20 and 1:1000 diluted HRP-Goat-anti human Fcγ (Jackson ImmunoResearch) was added the plate and incubated for 1 hour at room temperature. Plates were washed with PBS/0.05% Tween 20 and detected using TMB substrate (BioFX Laboratories, Owings Mills).
row,EC50,Binder
1,1 ng/mL,B13
2,1.4 ng/mL,B14
3,0.7 ng/mL,B15
4,0.7 ng/mL,B16

# Biological target: T3, human TfR extracellular domain with N-terminal His tag (human, UniProt P02786 89-760)
# T3 construct: Biotinylated in some assays; also called huTfR; HuTfR
# Assay: as above
# Method: as §1
row,EC50,Binder
1,0.3 ng/mL,B13
2,0.4 ng/mL,B14
3,0.3 ng/mL,B15
4,0.3 ng/mL,B16

# Biological target: T1, cyno TfR extracellular domain …
# Assay: SPR, TfR captured by anti-His, Fab injected;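 further: single cycle kinetics with a Fab dilution series, fitted by a one-to-one Langmuir model or a steady state model, KD taken as koff over kon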
# Method: (§2) Antibody affinities were measured using surface plasmon resonance (“SPR”) (Biacore™, GE Healthcare). Anti-His antibody (Qiagen) was coupled onto four different flow cells of a BIACORE™ CM5 sensor chip (Biacore, Inc., Piscataway, N.J.) at between 6000 and 8000 RU. Immobilization was achieved by random coupling through amino groups using a protocol provided by the manufacturer. 10×HBS-P (Biacore, Inc., Piscataway, N.J.) was diluted in water and served as the dilution and running buffer. Purified human or cyno TfR was captured, followed by a 3-fold dilution series of IgG or Fab that was injected at a flow rate of 30 ml/min using the single cycle kinetics method. Affinity constants were determined using a simple 1:1 Langmuir binding model or using a steady state model when kₒₙ or koff was beyond the detection limit. The equilibrium dissociation constant (KD) was calculated as the ratio of association rate constant (kₒₙ) and dissociation rate constant (koff).
# (§3) In both cases, the SPR experiments were performed as described above.
Kd,koff,kon,Binder
73.9 nM,0.0373 s⁻¹,505000 M⁻¹ s⁻¹,B17

# Biological target: T3, human TfR extracellular domain with …
# Assay: SPR, TfR captured by anti-His, Fab injected;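 further: single cycle kinetics with a Fab dilution series, fitted by a one-to-one Langmuir model or a steady state model, KD taken as koff over kon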
# Target sequence in this assay (P02786 89-760 G142S): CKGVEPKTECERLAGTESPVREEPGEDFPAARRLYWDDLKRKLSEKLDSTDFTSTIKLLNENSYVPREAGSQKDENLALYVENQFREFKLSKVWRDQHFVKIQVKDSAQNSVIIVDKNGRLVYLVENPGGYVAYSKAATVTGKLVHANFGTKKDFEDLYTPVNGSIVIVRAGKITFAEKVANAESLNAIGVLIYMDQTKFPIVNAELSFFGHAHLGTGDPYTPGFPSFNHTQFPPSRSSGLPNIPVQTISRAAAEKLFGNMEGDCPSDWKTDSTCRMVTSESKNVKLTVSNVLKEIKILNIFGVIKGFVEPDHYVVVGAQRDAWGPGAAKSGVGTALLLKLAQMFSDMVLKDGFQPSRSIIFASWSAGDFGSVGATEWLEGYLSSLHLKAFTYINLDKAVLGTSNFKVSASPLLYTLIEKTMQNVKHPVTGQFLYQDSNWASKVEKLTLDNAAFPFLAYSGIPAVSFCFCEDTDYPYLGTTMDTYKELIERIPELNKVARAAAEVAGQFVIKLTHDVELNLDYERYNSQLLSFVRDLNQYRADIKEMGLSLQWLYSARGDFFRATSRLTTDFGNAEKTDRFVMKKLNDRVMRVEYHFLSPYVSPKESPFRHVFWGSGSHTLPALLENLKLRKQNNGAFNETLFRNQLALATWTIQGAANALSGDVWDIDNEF
# Method: as §2, §3
Kd,koff,kon,Binder
10.9 nM,0.00699 s⁻¹,638000 M⁻¹ s⁻¹,B17
0.686 nM,0.00153 s⁻¹,2.24e+06 M⁻¹ s⁻¹,B18
1.15 nM,0.00107 s⁻¹,928000 M⁻¹ s⁻¹,B19

# Biological target: T4, murine BACE1 ECD
# T4 construct: analyte of the Octet assay (200 nM) and enzyme of the first short substrate assay
# T4 sequence (single chain, as listed by the source limits assumed): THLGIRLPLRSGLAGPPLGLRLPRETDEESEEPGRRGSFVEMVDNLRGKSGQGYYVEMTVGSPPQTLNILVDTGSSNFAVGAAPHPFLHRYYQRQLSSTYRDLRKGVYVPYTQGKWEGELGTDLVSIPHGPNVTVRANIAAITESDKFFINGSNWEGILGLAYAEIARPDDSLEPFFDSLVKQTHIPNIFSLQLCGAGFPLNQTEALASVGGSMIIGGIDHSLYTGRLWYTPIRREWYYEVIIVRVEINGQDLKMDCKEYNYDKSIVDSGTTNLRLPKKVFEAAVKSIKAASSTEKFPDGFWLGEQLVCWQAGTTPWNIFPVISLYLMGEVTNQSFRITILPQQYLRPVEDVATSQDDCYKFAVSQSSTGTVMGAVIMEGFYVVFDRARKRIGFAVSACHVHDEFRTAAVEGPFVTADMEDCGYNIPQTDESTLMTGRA
# Assay: Octet, pH 5.0;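 further: antibodies captured on anti-human capture sensor tips, dissociation monitored in PBS with BSA buffer, kinetics fitted with a one-to-one binding model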
# Method: (§4) Anti-BACE1 antibodies were loaded onto anti-human capture (AHC) sensors (tips) followed by 60 seconds baseline in assay buffer. […] Tips were transferred to assay buffer for 5 minutes, 30 minutes, or 120 minutes depending on the off-rate, for off-rate measurement. Assay buffer was either PBS+0.1% BSA, pH 7.5; or PBS+0.1% BSA, pH 5.0. Kinetics were analyzed using a 1:1 binding model.
row,Kd,Binder
1,< 0.23 nM,B1
2,< 0.3 nM,B2
3,0.4 nM,B3
4,< 0.34 nM,B4
5,< 0.31 nM,B5
6,0.41 nM,B6
7,< 0.29 nM,B7
8,< 0.31 nM,B8
9,< 0.4 nM,B20
10,< 0.54 nM,B9
11,< 0.4 nM,B10
12,< 0.4 nM,B11
13,< 0.29 nM,B12

# Biological target: T5, human BACE1 ECD
# T5 construct: analyte of the Octet assay (200 nM) and enzyme of the first short substrate assay; also called human BACE1 extracellular domain
# T5 sequence (single chain, as listed by the source limits assumed): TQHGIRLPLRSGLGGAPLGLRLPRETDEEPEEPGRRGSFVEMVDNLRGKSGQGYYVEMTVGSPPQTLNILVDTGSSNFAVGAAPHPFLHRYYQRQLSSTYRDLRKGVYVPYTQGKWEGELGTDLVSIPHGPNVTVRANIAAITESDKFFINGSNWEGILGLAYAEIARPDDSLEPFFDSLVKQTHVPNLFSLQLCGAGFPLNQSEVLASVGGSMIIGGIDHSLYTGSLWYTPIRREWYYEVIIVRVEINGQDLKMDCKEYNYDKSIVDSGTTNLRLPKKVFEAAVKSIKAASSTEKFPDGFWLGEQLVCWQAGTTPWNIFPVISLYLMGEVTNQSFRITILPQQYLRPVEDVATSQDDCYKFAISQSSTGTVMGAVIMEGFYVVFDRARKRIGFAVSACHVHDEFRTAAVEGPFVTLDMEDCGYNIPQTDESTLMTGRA
# Assay: Octet, pH 5.0;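 further: antibodies captured on anti-human capture sensor tips, dissociation monitored in PBS with BSA buffer, kinetics fitted with a one-to-one binding model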
# Method: as §4
row,Kd,Binder
1,< 0.18 nM,B1
2,< 0.26 nM,B2
3,0.32 nM,B3
4,< 0.27 nM,B4
5,0.31 nM,B5
6,0.43 nM,B6
7,< 0.25 nM,B7
8,< 0.24 nM,B8
9,< 0.34 nM,B20
10,< 0.41 nM,B9
11,< 0.26 nM,B10
12,< 0.39 nM,B11
13,< 0.25 nM,B12

# Biological target: T2, BACE1 in primary mouse cortical neurons
# Assay: cell-based or functional assay
# Remark: another data set of the same source
"IC50, Abeta x-40 in mouse cortical neurons",maximal % inhibition of Abeta x-40,Binder
9.1 nM,71%,B20

# Biological target: T4, murine BACE1 ECD
# Assay: Octet, pH 7.5;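 further: antibodies captured on anti-human capture sensor tips, dissociation monitored in PBS with BSA, Kd obtained from kinetic fit to a one-to-one binding model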
# Method: as §4
row,Kd,Binder
1,< 0.18 nM,B1
2,< 0.26 nM,B2
3,0.46 nM,B3
4,< 0.3 nM,B4
5,< 0.32 nM,B5
6,< 0.28 nM,B6
7,< 0.29 nM,B7
8,< 0.31 nM,B8
9,< 0.68 nM,B20
10,< 0.62 nM,B9
11,< 0.39 nM,B10
12,< 0.41 nM,B11
13,< 0.29 nM,B12

# Biological target: T5, human BACE1 ECD
# Assay: Octet, pH 7.5;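 further: antibodies captured on anti-human capture sensor tips, dissociation monitored in PBS with BSA, Kd obtained from kinetic fit to a one-to-one binding model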
# Method: as §4
row,Kd,Binder
1,< 0.18 nM,B1
2,< 0.28 nM,B2
3,0.39 nM,B3
4,< 0.3 nM,B4
5,< 0.32 nM,B5
6,0.32 nM,B6
7,< 0.32 nM,B7
8,< 0.31 nM,B8
9,< 0.8 nM,B20
10,< 0.59 nM,B9
11,< 0.39 nM,B10
12,< 0.87 nM,B11
13,< 0.29 nM,B12
